Assays:
[1] = in vitro release study of PADM in human plasma; assay type: in vitro ADME; conditions: over 6-7 h in human plasma
Text: (§1) Activated CB cleaves the Phe-Lys dipeptide at the Lys-PABC bond. Then, the exposed PABC spacer spontaneously decarboxylates upon deacylation and free ADM molecules are released.

[2] = biological target: Cathepsin B (CB) (Homo sapiens, UniProt P07858); experiment: in vitro release study of PADM in CB solution; assay type: biochemical; conditions: 37° C., read-out: half-life of ADM release
Text: as §1

For `COc1cccc2c1C(=O)c1c(O)c3c(c(O)c1C2=O)C[C@@](O)(C(=O)CO)C[C@@H]3O[C@H]1C[C@H](NC(=O)OCc2ccc(NC(=O)[C@H](CCCCN)NC(=O)[C@H](Cc3ccccc3)NC(C)=O)cc2)[C@H](O)[C@H](C)O1` [PADM, Ac-Phe-Lys-PABC-ADM], the “changes (ADM release) in human plasma” value [1] was “no changes were observed” and the half-life [2] was 16 min.
